Reference: the nanobody polyreactivity screen of Harvey et al. (2022)

test: yeast display, Sf9 membrane polyspecificity reagent, FACS + sequencing; frameworks hold sequencing errors
How it was run: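 Synthetic nanobody libraries on Saccharomyces cerevisiae BJ5465 were galactose-induced for 36–48 hours, stained 1 hour at 4 °C with 10% biotinylated, detergent-solubilized Sf9 membrane reagent and enriched on streptavidin microbeads. FACS then separated cells into low and high (top ~1%) gates by anti-HA (expression) and streptavidin (reagent binding) fluorescence. Genes were colony-PCR amplified, MiSeq 2 × 250 sequenced and CDR-length filtered. A clone's polyreactivity label is that of its gate of origin.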

Row | Sequence | polyreactivity (PSR sort gate)
1 | QVQLVESGGGLVQAGGSLRLSCAASGFTFGGYAMGWYRQAPGKERELVAAIRSSGDTTYYADSVKGRFTISRDNAKNTVYLQMNSLKPEDTAVYYCAAYSHHQFSRSEYYYWGQGTQVTVSS | low polyreactivity
2 | QVQLVESCGGLVQAGGSLRLSCAASGLTLGDNAMGLYRQAPGKERELVAAITSGSSTDYADSVKGRFTISRDNAKNTVYLQMNSLKPEDTAVYYCAKRIYRYQYRPENYWGQGTQVTVSS | low polyreactivity
3 | QVQLVESGGGLVQAGGSLRLSCAASGRTFRVYAMGWYRQAPGKERELVAAITRGGSTYYADSVKGRFTISRDNAKNTVYLQMNSLKPEDTAVYYCAADVLRTQPIGWYSHSPLEYWGQGTQVTVSS | high polyreactivity
4 | QVQLVESGGGLVQAGGSLRLSCAASRFYTMGWYRQAPGKERELVAAISWSGGDTYYADSVKGRFTISRDNAKNTVYLQMNSLKPEDTAVYYCAKKTIGSYVHEPYYYWGQGTQVTVSS | low polyreactivity
5 | QDQLVESGGGLVQAGGSLRLSCAASGRIFDYNVMGWYRQAPGTEREFVADINGSGGGTNYADSVKGRFTISRDNAKNTVYFLMNSLKPEDTAVSYCNADSYEYHVPYYDYRYDYWGQGTQVTVSS | low polyreactivity
6 | QVQLVESGGGLVQAGGSLRLSCAASGSTFAYYAMGWYRQAPGKERELVAAISYSGGITYYADSVKGRFTISRDNAKNTVYLQMNSLKPEDTAVYYCNKLFAQEFDYWGQGTQVTVSS | high polyreactivity
7 | QVQLVESGGGLVQAGGSLRLSCAASGFTSSRNAMGWYRQAPGKERELVATISSGGDTYYADSVKGRFPISRDNAKTTVYLQMNSLKPEDTAVYYCNKDPLYAWGYDYWGQGTQVTVSS | low polyreactivity
8 | QVQLVESGGGLVQAGGSLRLSCAASGRISSLYAMGWYRQAPGKERELVAAISGTGGSAYYADSVKGRFTISRDNAKNTVYLQLNSLKPEDTAVYYCNAVRRWRTSQFDYWGQGTQVTVSS | low polyreactivity
9 | QVQLVDSVGGLVQAGGSLRLSCAASGSIFWTYAMGWYRQAPGKERELVATITYSDGNTYYADSVKGRFTISRDNAKNTVYLQMHSLKPEDTAVYYCNADGIYASISGYRYDYWGQGTQVTVSS | low polyreactivity
10 | QVQLVESGGGLVQAGGSLRLSCAASVRTFSYYAMGWYRQAPGKERELVASISGGGRTNYADSVKGRFTISRDNAKKTVYLQMNSLKPEDTAVYYCAARYQITRQYKRGYWGQGNQVTVSS | high polyreactivity
11 | QVQLVESGGGLVQAGGSLRLICAASGIIFSDYAMGWYRQAPGKERELVAAITGGGSTYYADSVKGRFTISRDNAKNTVYLQMNSLKPEDTAVYYCNADTWGFTYYYWGQGTQVTVSS | low polyreactivity
12 | QVQLVESGGGLVQAGGSLRLSCAASGRTFDIYAMGWYRQAPGKERELVAAISSGGSTYYADSVKGRFTISRDNAKNTVYLQMNRLKPEDTAVYYCAVRWYDQVSRRGIGYYWGQGTQVTVSS | low polyreactivity
13 | QDQLVESVGGLVQAGGSLRLSCAASGITFRYYTMGWYRQAPGKESELVAVISWSGGSTYYADSVKGRFTISRDNAKNTVYLQMNSLKPEDTAVYYCAAVRRISRYDYWGQGTQVTVSS | high polyreactivity
14 | QVQLVESGGGIVQAGGSLRLSCAASGGIFDSYAMGWYRQAPGKERELVADITSGGSTNYADSVKGRFTISRDNAKNTVYLQMNSLKPEDTAVYYCAKEFYYSVGVNLGDSWGQGIQVTVSS | low polyreactivity
15 | QVQLVESGGGLVQAGGSLRLSCAASGRIFRRNTMGWYRQAPGKERELVATISKNGGSTYYADSVKGRFTISRDNAKNTVYLQMNSLKPADTAVYYCNAPDPSSTSYFPYELGYWGQGTQVTVSS | high polyreactivity
16 | QVQLVESGGVLVQAGGSLRLSCAASGSTFSYYTMGWYRQAPGKERELVATISKRGGTTSYADSVKGRFTISRDNAKNTVYLQMNSLKPEDTAVYYCAARYSKVHYAYDYWGQGTQVTVSS | high polyreactivity
17 | QVLLEESVGGLDQAGGSLRLSCAASGFNFQTNAMGRYRQAPGKEREFVAAISDSGGSTNYADSVKGRFTISRDNAKNTGYLQMNSLKPEDSAVYYCATSFAVYDYDYWGQGTQVTVSS | low polyreactivity
18 | QGQLVESGGGFVQAGGSLRLSCAASGRTIEGNAMGWYRQPPWKERELVAGIRQSGDSTYYADSVKGRFTISRDNAKNTVYLQMNSLKAEETAVFYSNSRAFPFGTGVQGFGFGYWGQGTQVTVSS | low polyreactivity
19 | QVQLVESGGGLVQAGGSLRLSCAASGSTFLTNTMGWYRQAPGKERELVAIISRSSGTTYYSDSVKGRFTISRDNAKNTVYLQMNSLKPEDTAVYYCAKRYRRAYPYSKNDYWGQGTQVTVSS | high polyreactivity
20 | QVQLVESGGGLVQAGGSLRLSCAASGRTFGWYAMGWYRQAPGKERELVAAISTRGTRTYYADSVKGRFTISRDNAKNTVYLQMNSLKPEDTAVYYCNAKRRAVTTAHGIPEEDYWGQGTQVTVSS | high polyreactivity
21 | QVQLVESGGGLVQAGGSLRLSCAAYGSNFTSNAMGWYRQAPGKERELVAVITIGGSTNYADSVKGRFTISRDNAKNTVYLQMNSLKPEDTAVYYCAADDDYSRILQGDQSDDYWGQGSQVTVSS | low polyreactivity
22 | QVQLVESGGGLVQAGGSLRLSCAASGSTFRANAMGWYRQAPGKERELVAAISQSGGITYYADSVKGRFTISRDNAKNTVYLQMNSLKPEDTAVYYCAALGYRIKRGRFYYWGQGTQVTVSS | high polyreactivity

Row | Sequence | polyreactivity (PSR sort gate)
23 | QVQLVESGGGLVQAGGSIRLSCAASGNTFRWYAMGWYRQAPGKEREFVAAISSSGGSTYYADSVKGRFTISRDNAKNTVYLQMNSLKPEDTAVYYCTAASVTRHVSFATDYEYWGQGTQVTVSS | high polyreactivity
24 | QVQIVESGGGLVQAGGSLRLSCAASGFTIPRYAMGWYRQAPGKERELVAAISRAGRTYYADSVKGRFTISRDNAKNTVYLLMTSLKPEDTAVYYCNSQYLKPGDYWGHGTQVTVSS | high polyreactivity
25 | QVQLVESGGGLVQAGGSLRLSCAASGSTFNIYGMGWYRQAPGKERELVARISSGGSTYADSVKGRFTISRDNAKNTVYLQMNSLKPEDTAVYYCAAAAARTYRRYRYEGYYYWGQGTQVTVSS | high polyreactivity
26 | QVQLVESGGGLVQAGGSLRLSCAASGSTFFGNAMGWYRQAPGKERELVAAITSGGSTNYADSVKGRFTISRDNAKNTVYLQMNSLKPEDTAVYYCAKEYHYYYWGQGTQVTVSS | low polyreactivity
27 | QVQLVESGGGLVQAGGSLRLSCAASGRIFIIYAMGWYRQAPGKERELVAAINRGATTNYADSVKGRFTISRDNAKNTVYLQMNSLKPEDTAVYYCAARGVAKLRRVGYWGQGTQVTVSS | high polyreactivity
28 | QVQLVESGGGLVQAGGSLRLSCAASGSTFYDYAMGWYRQAPGKERELVASISISGGSTYADSVKGRFTISRDNAKNTVYLQMNSLKPEDTAVYYCNAKNYSWDDYYWVPDYEYWGQGTQVTVSS | low polyreactivity
29 | QVQLVESRGGLLQAGGSLRLSCAASGSIFKYYSMGSYRQAPGKERELVAAIRWSGGTTYYADSVKGRFTISRDNAKNTVYLQMNSLKPEDTAVYYCAAEYFNQNTREGYDYWGQGSQVTVSS | low polyreactivity
30 | QVQLVDSGGGLVQAGGSLRLRCAASGITYSYYTKGWYRQAPGKERDLVAGITRSGSTYYADSVKGRFTISRDNAYNTVYLQMNSLKPEDTAVYYCNARARGAYNRPNYPRYYYWGQGTQVTVSS | high polyreactivity
31 | QVQLVESGGGLVQAGGSLRLSCAASGFTFGHYALGWYRQATGKERELVAAITRSGGNTYYADSVKGRFTISRYNAKNTVYLQMNSLKPEDTAVYYCAARLGWVYYSRSRYGYWGQGTQVTVSS | high polyreactivity
32 | QVQLVQSGGGLVQAGGSLRLSCAASGSTFYLNAMGLYIQAPGKERELLAAITDAGSTNYADSVKGRFTISRDNAKNTVYLQMNSLKPEDTAVYYCNAEPRYYSGGHGYDYWGQGTQVTVSS | low polyreactivity
33 | QVQLVESGGGLVQAGGSLRLSCAASGFTFRGNAMGWYRQAPGKERELVAAITWNGGSTYYADSVKGRFTISRDNAKNTVYLQMNSLKPEDTAVYYCAAQYGKKRQPRFNYWGQGTQVTVSS | high polyreactivity
34 | QVQLVESGGGLVQAGGSPRLSCAASGRTFRSNAMGWYRQAPGKERELVAAISWSGGSTYYADSVKGRFTISRDNAKNTVYLQLNSLKPEDTAVYYCAAGSYWSPYGQSFWPKYDYWGQGSQVTVSS | high polyreactivity
35 | QVQLVESGGGLVQAGGSLRLSCAASGSTFPVYAMGGYRQAPGKERELVAAISLIGGSTYYADSVKGRFTISRDTAKNTVYLQMNSLKPEDTAVYYCNTAVISSPPAIDVLEMDYWGQGTQVTVSS | low polyreactivity
36 | QVQLVESGGGLVQAGGSLRLSCAASGSTFAANAMGWYRQAPGKERELVAAMTSSGGSTYYADSVKGRFTISRDNAKNTVYLQMNSLKPEDTAVYYCNKDIERYVRIYDSWGQGTQVTVSS | low polyreactivity
37 | QVQLVESGGGLVQAGGSLRLSCAASGNIFNEYARGWYSQAPGKESELVAAITWSAGSTYYADSVKGRFTISRDNAKNTVYLQMNSVKPEDTGVYYCNTQEKANTQHYYWGQGTQVTVSS | low polyreactivity
38 | QVQIVESRGGLVQAGGSLRLSCAASGFIIYKYALGWYRQAPRKERELVAAISSSGGNTYYADSVKGRFTNSRDNAKNTVFLQMMSLKPEDTAVYYCAADYYVSKSRYYSYGYWGQGTQVTVSS | high polyreactivity
39 | QVQLVESGGGLVQAGGSLRLSCADSGSIFEVYAMGWYRQAAGKERELVAAINYTGGSTYYADSVKGRFTISRDNAKITVYLQMNSLKPEDTAVYYCARDTSGNGTRYDYWGQGTQVTVSS | low polyreactivity
40 | QVQLVESGGCLVQAGGSLRLSCAASGSIFKWYAMGWYRQAPGKERELVAAITRGGSTNYADSVQGRFTISRDNAKNTVYLQMNSLKPEDTAVYYCNAVYTYRSGFGYWGQGTQVTVSS | low polyreactivity
41 | QFQLVESGGGLVQAGGSLRLSCAASGSIFTYNVMGWYRQAPRKERELVAAISDGDGSTYADSVKGRFTISRDNAKNTVYLQMNSLKPEDTAVYYCAAVDGRYLGGFNSRDGDWGQGTQVTVSS | low polyreactivity
42 | QVQLVESGGGLVQAGGSLRLSCAASGIIFYTYAMGWYRQAPGKEREFVAGIRWSGSSTYYADSVKGRFTISRDNAKNTVYLQMNSLKPEDTAVYYCATGQPYGPLYSLGYGYWGQGTQVTVSS | high polyreactivity
43 | QVQLVESGGGLVQAGGSLRLSCAASGGTFYVYAMGWYRQAPGKERELVAAISTSDGITYYADSVKGRFTLSRDNAKNTVYLQMNSLKPEDTAVYYCAAEFFSSFTYAYDYWGQGTQVTVSS | high polyreactivity
